Results on five molecules are retold here after US7629315B2, “Compositions for blocking the inhibitory effect of human CRP on human leptin” (University of Pittsburgh of the Commonwealth System of …, priority 2005, dated 2009).

“Also recorded” adds a separate entry of the source. [ ]: non-standard residue; d: D form.

One data set deals with T1, human CRP (Homo sapiens, UniProt P02741).
T1 construct: purchased CHEMICON International
T1 sequence (P02741 19-224): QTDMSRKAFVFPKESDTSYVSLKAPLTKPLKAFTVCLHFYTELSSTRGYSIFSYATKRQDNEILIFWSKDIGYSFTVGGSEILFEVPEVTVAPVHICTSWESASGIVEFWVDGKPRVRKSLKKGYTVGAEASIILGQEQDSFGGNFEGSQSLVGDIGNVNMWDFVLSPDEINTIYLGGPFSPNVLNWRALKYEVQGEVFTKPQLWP
Briefly: Block of the inhibitory effect of human CRP on leptin-stimulated STAT3 phosphorylation in HEK-293 OB-Rb cells. The data set is classed as cell-based. Particulars: for restoration of leptin-stimulated STAT3 activation in the presence of human CRP: hexamer at concentrations as high as 0.8 μM, human CRP 8 μg/ml, human leptin 2 nM, 1-hour pre-incubation. As for the experimental part: In the in vitro experiment, Peptide-E was pre-incubated with human CRP for 30 minutes before being mixed with human leptin for an additional 45 minutes. The resultant mixture was then added to the HEK-293 cells overexpressing the long form leptin receptors, OB-Rb (FIG. 9). After a 30 minute incubation, the cells were harvested in a protein extraction buffer (Zhao, et al., 1997, PNAS). The signaling of leptin in the cells, measured by its ability to stimulate tyrosine phosphorylation on STAT3 in a western blot assay, was evaluated.
Using a design similar to the in vitro experiment described in Example 5, the hexamer of the '388 patent (SEQ ID NO:3) was pre-incubated with human CRP (8 μg/ml) and human leptin (2 nM) for 1-hour. The resultant mixture was then added to the HEK-293 cells overexpressing the long form leptin receptors, OB-Rb (FIG. 12). After a 30 minute incubation, the cells were harvested in a protein extraction buffer. The signaling of human leptin in the cells, measured by its ability to stimulate tyrosine phosphorylation on STAT3 in a western blot assay, was evaluated.

The subject of the next data set is ob/ob mice. Briefly: Co-infusion of Peptide E with human CRP and leptin into ob/ob mice. The format is in vivo, mouse. Particulars: for restoration of leptin effect on body weight / restoration of leptin effect on food-intake: Pep-E 24 or 48 μg/day/mouse with human CRP 48 and leptin 12 μg/day/mouse. As for the experimental part: FIG. 10. […] Infusion dosages for human CRP and leptin were 48 μg/day/mouse and 12 μg/day/mouse, respectively. The infusion rate for Pep-E (P) was 24 μg/day/mouse (medium dosage, abbreviated “m”) and 48 μg/day/mouse (high dosage, abbreviated “h”). Food-intake (FIGS. 10(A & C)) and body weight (FIGS. 10(B & D)) were monitored daily throughout the infusion. The arrows in A-D indicate the day of surgery. At the end of infusion, blood samples were collected for the measurement of blood-glucose, human CRP, and human leptin. The serum concentrations of human CRP and human leptin were 0.85±0.1 μg/ml and 18 ng±2 ng/ml, respectively. […] The glucose concentration from the mice infused with human CRP and leptin, but NOT with Pep-E was also shown.
In the in vivo experiment, the Peptide E polypeptide was co-infused through mini-osmotic pumps with human CRP and leptin into the ob/ob mice. Food-intake (24 hours) and body weight were followed during the infusion period (FIG. 10A-10D).

The test system of data set [1] is leptin-induced tyrosine phosphorylation of STAT3. Description: Leptin-induced STAT3 tyrosine phosphorylation in HEK293 cells expressing OB-Rb (western blot), human leptin. Conditions: human leptin 2 nM, protein pre-incubated with leptin, HEK293 OB-Rb cells. The data set is classed as cell-based. The method, then:
(§1) 2. Signaling Studies: A HEK293 cell line stably expressing the human long-form receptor, OB-Rb (M. Friedman-Einat et al., 2003, Regul. Pept. 111, 77) was serum starved for 2-h before addition of leptin and CRP. Leptin (SEQ ID NO:4), in the presence or absence of C-reactive proteins, was pre-incubated in μ-MEM for 30 minutes at 37° C. before applied to the cells. After a 30-incubation with leptin (SEQ ID NO:4), the cells were harvested in a previously described protein lysis buffer. A. Z. Zhao et al., 1997, Proc. Natl. Acad. Sci. U.S.A. 94, 322. The protein extract was subjected to a western blot assay with an anti-phospho-STAT3 specific antibody (Cell Signaling, Beverly, Mass.). For studies involving the primary hypothalamic neurons, the rat hypothalamus was surgically isolated right after euthanasia, and immediately placed in the DMEM for incubation with leptin in the presence or absence of CRP.
(§2) To determine if the interaction between CRP and leptin influences cellular actions of leptin, we assessed the ability of leptin to stimulate tyrosine phosphorylation of STAT3 and PI3-kinase activity in the presence of CRP in vitro.
(In general: In western blotting, separated proteins are transferred to a membrane and probed.)

Another data set addresses mouse leptin (Mus musculus, UniProt P41160). Description: Immunoprecipitation of rat CRP with mouse leptin. Particulars: leptin and CRP mixture and rat serum. The format is binding. The method, then:
Direct binding of […] and leptin in an immunoprecipitation assay was determined. Rat CRP was purified from fresh rat serum to >95% employing a previously established affinity-purification protocol. J. Tseng et al., 1988, Mol. Immunol. 25, 679. This purity is very similar to the human CRP preparation obtained from a commercial source (CHEMICON International). The purified human- and rat-CRP proteins were pre-mixed with recombinant human and mouse leptin, respectively, before addition of specific antibodies against human- and mouse-leptin. The concentrations of CRP and leptin in the precipitation reaction were all within the physiological ranges (M. B. Schulze et al., 2004, Diabetes Care 27, 889; T. Kazumi et al., 2003, Metabolism 52, 1113).
In parallel experiments, recombinant leptin was also pre-mixed with human- or rat serum to allow for potential direct interactions prior to immunoprecipitation. The precipitation pellets obtained were subjected to western blot assays with specific anti-CRP antibodies. […] Because of the similarities between rat CRP and human CRP in the binding to leptin and of our main interest in the relevance to human obesity, focus was placed on potential functional effects of human CRP in the subsequent experiments.

For data set [2], the system named is insulin-stimulated PI3-kinase. Description: Insulin-stimulated PI3-kinase activity in differentiated 3T3-L1 adipocytes (specificity control). The data set is classed as cell-based.
In data set [3] the test system is mouse leptin-induced STAT3 activation. Description: Leptin-induced STAT3 tyrosine phosphorylation in HEK293 cells expressing OB-Rb, mouse leptin. The format is cell-based. Particulars: murine leptin 2 nM. The method, then:
as §1, §2

Sequence of mouse leptin (P41160 22-167): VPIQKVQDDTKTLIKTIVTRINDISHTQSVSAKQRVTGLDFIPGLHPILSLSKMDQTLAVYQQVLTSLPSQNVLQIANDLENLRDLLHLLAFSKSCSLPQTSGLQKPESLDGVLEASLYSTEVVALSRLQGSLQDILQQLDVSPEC

As for “Peptide E: chemically synthesized polypeptide of 27 amino acids representing a segment of human leptin (SEQ ID NO:2) (LAFSKSCHLPWASGLETLDSLGGVLEA; listed as Homo sapiens)”, the “STAT phosphorylation by the peptide itself” value in the data set with human CRP (Peptide-E by itself) is on record as “did not induce any changes in STAT phosphorylation”. Further, in the data set on ob/ob mice, the “restoration of leptin effect on body weight” value is recorded as “could restore both of these functions of human leptin” and the “restoration of leptin effect on food-intake” value is on record as “could restore both of these functions of human leptin”. In the data set on ob/ob mice (listed as Peptide-E), the “restoration of leptin effect on body weight” value is recorded as “restored the physiological effects of human leptin” and the “restoration of leptin effect on food-intake” value was “restored the physiological effects of human leptin”. Also, the “restoration of leptin effect on blood glucose” value with ob/ob mice (end of infusion, high dosage of Pep-E 48 μg/day/mouse with human CRP and leptin) was “could restore the beneficial effect of human leptin on blood glucose”.
“NH2-S-C-H-L-P-W-COOH (H-SCHLPW-OH; listed as Homo sapiens) [SEQ ID NO:3, 6 amino acid polypeptide reported in U.S. Pat. No. 6,777,388 to Grasso, et al]”: the “restoration of leptin-stimulated STAT3 activation in the presence of human CRP” value in the data set with human CRP is given as “unable to block the negative effect of human CRP on the signaling capability of human leptin; also recorded: failed to restore leptin-stimulated STAT3 activation”.
The same measure, in the same setting: as for “NH2—W—P—L—H—C—S—COOH (H-[dW][dP][dL][dH][dC][dS]-OH; SMILES CC(C)C[C@@H](NC(=O)[C@H]1CCCN1C(=O)[C@H](N)Cc1c[nH]c2ccccc12)C(=O)N[C@H](Cc1c[nH]cn1)C(=O)N[C@H](CS)C(=O)N[C@H](CO)C(=O)O; listed as Homo sapiens) [SEQ ID NO:5, D-form hex-peptide reported by Grasso, et al]”, the entry is “failed to restore leptin-stimulated STAT3 activation”.
Turning to “human serum amyloid P-component (SAP): human serum amyloid P-component, control protein [reference compound]”, the “effect on leptin-induced tyrosine phosphorylation of STAT3” value in data set [1] is given as “did not significantly alter leptin-stimulated phosphorylation of STAT3”.

B1: rat CRP: rat C-reactive protein purified from fresh rat serum to >95% (protein)
chain: HEDMSKQAFVFPGVSATAYVSLEAESKKPLEAFTVCLYAHADVSRSFSIFSYATKTSFNEILLFWTRGQGFSIAVGGPEILFSASEIPEVPTHICATWESATGIVELWLDGKPRVRKSLQKGYIVGTNASIILGQEQDSYGGGFDANQSLVGDIGDVNMWDFVLSPEQINAVYVGRVFSPNVLNWRALKYETHGDVFIKPQLWPLTDCCES
With B1, in the data set with mouse leptin, the “direct binding to mouse leptin (immunoprecipitation with anti mouse-leptin, anti-CRP western blot)” value was “could also bring down rat CRP”. Also, the “effect on insulin-stimulated PI3-kinase activity” value in data set [2] is “did not block insulin-stimulated PI3-kinase”. In addition, in data set [3], the “effect on mouse leptin-induced STAT3 phosphorylation” value is given as “attenuate the tyrosine-phosphorylation of STAT3; also recorded: higher concentrations of rat- than human-CRP are required to achieve the equivalent effects; also recorded: Attenuating effects”.
